Source: patent publication US20190338027A1 (ALLAKOS, published 2019)

Molecular target: human Siglec-8 on lung mast cells from COPD patients (human, UniProt Q9NYZ4 17-499)
Test: cell-based or functional assay

Chain of human Siglec-8 on lung mast cells from COPD patients (Q9NYZ4 17-499): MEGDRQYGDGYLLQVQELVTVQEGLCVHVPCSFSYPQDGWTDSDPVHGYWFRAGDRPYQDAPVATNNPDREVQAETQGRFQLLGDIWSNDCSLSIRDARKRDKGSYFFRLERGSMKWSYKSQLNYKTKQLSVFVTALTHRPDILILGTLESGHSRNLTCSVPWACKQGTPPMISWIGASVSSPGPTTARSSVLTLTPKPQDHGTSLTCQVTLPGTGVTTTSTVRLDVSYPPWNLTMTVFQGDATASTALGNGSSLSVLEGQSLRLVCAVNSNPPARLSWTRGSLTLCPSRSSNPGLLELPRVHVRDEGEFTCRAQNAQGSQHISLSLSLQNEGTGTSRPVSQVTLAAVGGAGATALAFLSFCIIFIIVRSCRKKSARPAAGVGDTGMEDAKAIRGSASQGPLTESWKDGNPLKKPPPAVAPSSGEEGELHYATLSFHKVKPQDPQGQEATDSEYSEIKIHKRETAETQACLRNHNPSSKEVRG

B1: anti-Siglec-8 IgG4 antibody (HEKA) (antibody, V domains shown)
VH: EVQLVESGGGLVQPGGSLRLSCAASGFSLTIYGAHWVRQAPGKGLEWVGVIWAGGSTNYNSALMSRFTISKDNSKNTVYLQMNSLRAEDTAVYYCARDGSSPYYYSMEYWGQGTTVTVSS
VL: EIVLTQSPATLSLSPGERATLSCSATSSVSYMHWFQQKPGQAPRLLIYSTSNLASGIPARFSGSGSGTDFTLTISSLEPEDFAVYYCQQRSSYPFTFGPGTKLDIKR
decrease in VEGF secreted into the cell supernatant by COPD lung tissue homogenates incubated overnight with antibody, relative to isotype control antibody: ~50%
